Assay results reported in publication PMC12099056, “Targeting the Exonic Circular OGT RNA/O-GlcNAc Transferase/Forkhead Box C1 Axis Inhibits Asparagine- and Alanine-Mediated Ferroptosis Repression in Neuroblastoma Progression” (Research, 2025).

Tests used:
[1] = Western blot of FOXC1 level; conditions: glycan lost; control: mock, sh-Scb or untreated
[2] = CHX chase Western blot (protein stability), SH-SY5Y; conditions: glycan lost; control: sh-Scb
[3] = dual-luciferase FOXC1 reporter, SH-SY5Y; conditions: glycan lost; control: wild-type Flag-FOXC1
[4] = molecular target: T1, recombinant GST-tagged OGT (wild-type) (human, UniProt O15294 1-1046); test: co-IP; recombinant GST-tagged OGT and MBP-tagged FOXC1 proteins (wild-type or truncations), co-IP and Western blot; conditions: both partners purified
T1 construct: O-GlcNAc transferase (OGT), human cDNA (printed as 3,131 bp) from Genechem; wild-type construct as against truncations
T1 sequence (looked up): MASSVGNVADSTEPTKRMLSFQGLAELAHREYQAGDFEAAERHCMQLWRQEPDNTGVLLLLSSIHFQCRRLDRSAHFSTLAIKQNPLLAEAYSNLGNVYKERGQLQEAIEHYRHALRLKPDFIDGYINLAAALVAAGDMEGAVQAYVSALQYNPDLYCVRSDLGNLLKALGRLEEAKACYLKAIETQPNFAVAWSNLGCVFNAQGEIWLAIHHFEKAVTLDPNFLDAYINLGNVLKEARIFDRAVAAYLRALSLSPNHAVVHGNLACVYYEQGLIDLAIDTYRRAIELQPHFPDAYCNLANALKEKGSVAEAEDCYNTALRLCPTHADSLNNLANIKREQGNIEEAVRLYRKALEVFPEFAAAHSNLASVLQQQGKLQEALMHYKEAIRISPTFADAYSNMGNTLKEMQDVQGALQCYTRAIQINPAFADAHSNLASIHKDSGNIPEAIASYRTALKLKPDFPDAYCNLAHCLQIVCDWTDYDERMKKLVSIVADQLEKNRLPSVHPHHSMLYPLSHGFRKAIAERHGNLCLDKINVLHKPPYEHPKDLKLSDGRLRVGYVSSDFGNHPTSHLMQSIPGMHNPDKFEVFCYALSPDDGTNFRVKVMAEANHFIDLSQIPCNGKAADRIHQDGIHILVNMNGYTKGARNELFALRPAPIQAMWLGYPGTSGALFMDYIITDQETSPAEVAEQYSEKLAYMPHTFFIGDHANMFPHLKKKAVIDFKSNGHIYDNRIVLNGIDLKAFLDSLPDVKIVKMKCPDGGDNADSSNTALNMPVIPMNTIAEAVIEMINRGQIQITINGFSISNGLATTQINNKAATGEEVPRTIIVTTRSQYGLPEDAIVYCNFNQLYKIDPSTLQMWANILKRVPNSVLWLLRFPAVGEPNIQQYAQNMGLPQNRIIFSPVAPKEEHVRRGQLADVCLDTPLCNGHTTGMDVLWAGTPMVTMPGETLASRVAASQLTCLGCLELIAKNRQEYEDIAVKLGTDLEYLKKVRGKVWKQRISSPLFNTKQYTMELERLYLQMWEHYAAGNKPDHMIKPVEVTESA

[5] = CHX chase Western blot (protein stability); conditions: glycan lost; control: untreated

B1: forkhead box C1 (FOXC1): sh-OGT (protein)
parent chain: MQARYSVSSPNSLGVVPYLGGEQSYYRAAAAAAGGGYTAMPAPMSVYSHPAHAEQYPGGMARAYGPYTPQPQPKDMVKPPYSYIALITMAIQNAPDKKITLNGIYQFIMDRFPFYRDNKQGWQNSIRHNLSLNECFVKVPRDDKKPGKGSYWTLDPDSYNMFENGSFLRRRRRFKKKDAVKDKEEKDRLHLKEPPPPGRQPPPAPPEQADGNAPGPQPPPVRIQDIKTENGTCPSPPQPLSPAAALGSGSAAAVPKIESPDSSSSSLSSGSSPPGSLPSARPLSLDGADSAPPPPAPSAPPPHHSQGFSVDNIMTSLRGSPQSAAAELSSGLLASAAASSRAGIAPPLALGAYSPGQSSLYSSPCSQTSSAGSSGGGGGGAGAAGGAGGAGTYHCNLQAMSLYAAGERGGHLQGAPGGAGGSAVDDPLPDYSLPPVTSSSSSSLSHGGGGGGGGGGQEAGHHPAAHQGRLTSWYLNQAGGDLGHLASAAAAAAAAGYPGQQQNFHSVREMFESQRIGLNNSPVNGNSSCQMAFPSSQSLYRTSGAFVYDCSKF
[1]
  expression_or_secretion: decreases

B2: forkhead box C1 (FOXC1): sh-OGT #1 (protein)
parent chain: MQARYSVSSPNSLGVVPYLGGEQSYYRAAAAAAGGGYTAMPAPMSVYSHPAHAEQYPGGMARAYGPYTPQPQPKDMVKPPYSYIALITMAIQNAPDKKITLNGIYQFIMDRFPFYRDNKQGWQNSIRHNLSLNECFVKVPRDDKKPGKGSYWTLDPDSYNMFENGSFLRRRRRFKKKDAVKDKEEKDRLHLKEPPPPGRQPPPAPPEQADGNAPGPQPPPVRIQDIKTENGTCPSPPQPLSPAAALGSGSAAAVPKIESPDSSSSSLSSGSSPPGSLPSARPLSLDGADSAPPPPAPSAPPPHHSQGFSVDNIMTSLRGSPQSAAAELSSGLLASAAASSRAGIAPPLALGAYSPGQSSLYSSPCSQTSSAGSSGGGGGGAGAAGGAGGAGTYHCNLQAMSLYAAGERGGHLQGAPGGAGGSAVDDPLPDYSLPPVTSSSSSSLSHGGGGGGGGGGQEAGHHPAAHQGRLTSWYLNQAGGDLGHLASAAAAAAAAGYPGQQQNFHSVREMFESQRIGLNNSPVNGNSSCQMAFPSSQSLYRTSGAFVYDCSKF
[2]
  degradation_or_half_life: decreases

B3: forkhead box C1 (FOXC1): S8A (protein)
parent chain: MQARYSVSSPNSLGVVPYLGGEQSYYRAAAAAAGGGYTAMPAPMSVYSHPAHAEQYPGGMARAYGPYTPQPQPKDMVKPPYSYIALITMAIQNAPDKKITLNGIYQFIMDRFPFYRDNKQGWQNSIRHNLSLNECFVKVPRDDKKPGKGSYWTLDPDSYNMFENGSFLRRRRRFKKKDAVKDKEEKDRLHLKEPPPPGRQPPPAPPEQADGNAPGPQPPPVRIQDIKTENGTCPSPPQPLSPAAALGSGSAAAVPKIESPDSSSSSLSSGSSPPGSLPSARPLSLDGADSAPPPPAPSAPPPHHSQGFSVDNIMTSLRGSPQSAAAELSSGLLASAAASSRAGIAPPLALGAYSPGQSSLYSSPCSQTSSAGSSGGGGGGAGAAGGAGGAGTYHCNLQAMSLYAAGERGGHLQGAPGGAGGSAVDDPLPDYSLPPVTSSSSSSLSHGGGGGGGGGGQEAGHHPAAHQGRLTSWYLNQAGGDLGHLASAAAAAAAAGYPGQQQNFHSVREMFESQRIGLNNSPVNGNSSCQMAFPSSQSLYRTSGAFVYDCSKF
[3]
  other: transcriptional activity: decreases

B4: recombinant MBP-tagged FOXC1 (wild-type) (natural protein, human, UniProt Q12948 1-553, looked up)
chain: MQARYSVSSPNSLGVVPYLGGEQSYYRAAAAAAGGGYTAMPAPMSVYSHPAHAEQYPGGMARAYGPYTPQPQPKDMVKPPYSYIALITMAIQNAPDKKITLNGIYQFIMDRFPFYRDNKQGWQNSIRHNLSLNECFVKVPRDDKKPGKGSYWTLDPDSYNMFENGSFLRRRRRFKKKDAVKDKEEKDRLHLKEPPPPGRQPPPAPPEQADGNAPGPQPPPVRIQDIKTENGTCPSPPQPLSPAAALGSGSAAAVPKIESPDSSSSSLSSGSSPPGSLPSARPLSLDGADSAPPPPAPSAPPPHHSQGFSVDNIMTSLRGSPQSAAAELSSGLLASAAASSRAGIAPPLALGAYSPGQSSLYSSPCSQTSSAGSSGGGGGGAGAAGGAGGAGTYHCNLQAMSLYAAGERGGHLQGAPGGAGGSAVDDPLPDYSLPPVTSSSSSSLSHGGGGGGGGGGQEAGHHPAAHQGRLTSWYLNQAGGDLGHLASAAAAAAAAGYPGQQQNFHSVREMFESQRIGLNNSPVNGNSSCQMAFPSSQSLYRTSGAFVYDCSKF
notes: forkhead box C1 (FOXC1), human cDNA (1,662 bp) from Genechem; wild-type construct as against truncations; the printed AD1 domain is residues 1 to 68; a cDNA of 1,662 bp fits 553 codons and a stop codon
[4]
  binding result: binds

B5: forkhead box C1 (FOXC1): OSMI-1 (protein)
parent chain: MQARYSVSSPNSLGVVPYLGGEQSYYRAAAAAAGGGYTAMPAPMSVYSHPAHAEQYPGGMARAYGPYTPQPQPKDMVKPPYSYIALITMAIQNAPDKKITLNGIYQFIMDRFPFYRDNKQGWQNSIRHNLSLNECFVKVPRDDKKPGKGSYWTLDPDSYNMFENGSFLRRRRRFKKKDAVKDKEEKDRLHLKEPPPPGRQPPPAPPEQADGNAPGPQPPPVRIQDIKTENGTCPSPPQPLSPAAALGSGSAAAVPKIESPDSSSSSLSSGSSPPGSLPSARPLSLDGADSAPPPPAPSAPPPHHSQGFSVDNIMTSLRGSPQSAAAELSSGLLASAAASSRAGIAPPLALGAYSPGQSSLYSSPCSQTSSAGSSGGGGGGAGAAGGAGGAGTYHCNLQAMSLYAAGERGGHLQGAPGGAGGSAVDDPLPDYSLPPVTSSSSSSLSHGGGGGGGGGGQEAGHHPAAHQGRLTSWYLNQAGGDLGHLASAAAAAAAAGYPGQQQNFHSVREMFESQRIGLNNSPVNGNSSCQMAFPSSQSLYRTSGAFVYDCSKF
[1]
  expression_or_secretion: decreases
[5]
  degradation_or_half_life: decreases
